Measurements as given in paper PMC12485084.

Target: 3xFLAG-TurboID-CaM C-lobe (human)
Assay: proximity labelling

Chain of 3xFLAG-WT human TRPA1 (Transient Receptor Potential Ankyrin subtype 1) (O75762 whole entry): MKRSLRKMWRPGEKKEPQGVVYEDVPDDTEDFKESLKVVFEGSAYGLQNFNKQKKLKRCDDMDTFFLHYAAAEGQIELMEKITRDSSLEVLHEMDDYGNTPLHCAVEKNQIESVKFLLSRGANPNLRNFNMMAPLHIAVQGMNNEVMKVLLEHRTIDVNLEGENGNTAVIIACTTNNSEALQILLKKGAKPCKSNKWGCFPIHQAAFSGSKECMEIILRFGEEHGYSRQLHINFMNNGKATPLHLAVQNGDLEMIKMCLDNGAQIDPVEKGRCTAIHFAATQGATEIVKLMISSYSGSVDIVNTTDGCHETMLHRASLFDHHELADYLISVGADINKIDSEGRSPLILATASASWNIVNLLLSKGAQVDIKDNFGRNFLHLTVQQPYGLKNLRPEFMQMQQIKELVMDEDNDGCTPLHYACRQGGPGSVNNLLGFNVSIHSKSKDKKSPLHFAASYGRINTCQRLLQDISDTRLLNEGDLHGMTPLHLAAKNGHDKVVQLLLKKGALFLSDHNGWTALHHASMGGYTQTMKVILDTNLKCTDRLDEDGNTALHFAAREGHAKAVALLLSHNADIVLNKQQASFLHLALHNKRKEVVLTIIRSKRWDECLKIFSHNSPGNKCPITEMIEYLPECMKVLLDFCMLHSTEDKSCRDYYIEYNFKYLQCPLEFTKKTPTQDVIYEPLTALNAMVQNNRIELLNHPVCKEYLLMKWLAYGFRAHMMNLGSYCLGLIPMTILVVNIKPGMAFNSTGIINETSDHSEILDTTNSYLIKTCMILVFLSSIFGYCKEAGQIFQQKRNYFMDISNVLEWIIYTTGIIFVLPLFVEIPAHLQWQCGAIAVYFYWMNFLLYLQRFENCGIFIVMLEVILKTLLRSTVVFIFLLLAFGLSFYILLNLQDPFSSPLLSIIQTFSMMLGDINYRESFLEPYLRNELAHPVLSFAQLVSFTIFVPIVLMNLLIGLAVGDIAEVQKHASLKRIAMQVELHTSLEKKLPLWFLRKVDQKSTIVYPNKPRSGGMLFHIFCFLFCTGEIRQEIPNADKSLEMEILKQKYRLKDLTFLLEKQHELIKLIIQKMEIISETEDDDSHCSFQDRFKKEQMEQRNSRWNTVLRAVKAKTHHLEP

percent increase in biotinylation with TurboID-CaM C-lobe versus free TurboID: 40%
Substance: 3xFLAG-WT human TRPA1 (Transient Receptor Potential Ankyrin subtype 1) (from UniProt O75762 1-1119) (natural protein)
